In patent publication US7875585 (dated 2011):

B3: L-selectin on rat thoracic duct lymphocytes (receptor, UniProt P30836 39-372, looked up)
chain: WTYHYSERSMNWENARKFCKHNYTDLVAIQNKREIEYLEKTLPKNPTYYWIGIRKIGKTWTWVGTNKTLTKEAENWGTGEPNNKKSKEDCVEIYIKRERDSGKWNDDACHKRKAALCYTASCQPESCNRHGECVETINNNTCICDPGYYGPQCQYVIQCEPLKAPELGTMNCIHPLGDFSFQSQCAFNCSEGSELLGNAKTECGASGNWTYLEPICQVIQCMPLAAPDLGTMECSHPLANFSFTSACTFTCSEETDLIGERKTVCRSSGSWSSPSPICQKTKRSFSKIKEGDYNPLFIPVAVMVTAFSGLAFIIWLARRLKKGKKSQERMDDPY
notes: whole, on cells; also called rat L-selectin; TDL L-selectin

Columns and labels:
[1] = molecular target: L-selectin on human lymphocytes or neutrophils (human) (UniProt P14151); assay: Stamper-Woodruff assay, human lymphocytes treated with LAM1-3, on immunoprecipitated KG1a CD44
[2] = molecular target: PSGL-1 from HL60 cells (human) (UniProt Q14242); assay: fixed HL60 cells treated with PL-1 (10 µg/ml), rat lymphocyte (L-selectin) rolling at 4.4 dynes/cm^2
[3] = molecular target: PSGL-1 from KG1a cells (human) (UniProt Q14242); assay: fixed KG1a cells treated with PL-1 (10 µg/ml), rat lymphocyte (L-selectin) rolling at 4.4 dynes/cm^2
[4] = molecular target: L-selectin on human lymphocytes or neutrophils (human) (UniProt P14151); assay: cell-based or functional assay
[5] = molecular target: L-selectin on lymphocytes (human or rat not given); assay: cell-based or functional assay
[6] = molecular target: L-selectin on rat thoracic duct lymphocytes (rat) (UniProt P30836); assay: cell-based or functional assay
[7] = molecular target: L-selectin on lymphocytes (human or rat not given); assay: Stamper-Woodruff assay, lymphocytes on immunoprecipitate spotted on glass
[8] = molecular target: L-selectin on lymphocytes (human or rat not given); assay: Stamper-Woodruff assay, equimolar amounts of KG1a CD44 and PSGL-1, 80 rpm
[9] = molecular target: L-selectin on lymphocytes (human or rat not given); assay: blot rolling assay, lymphocytes over blotted KG1a membrane protein, 2.3 dynes/cm^2
[10] = molecular target: B3; assay: Stamper-Woodruff assay, 80 rpm, rat thoracic duct lymphocytes
Method: (§1) Lymphocytes (10^7/ml RPMI-1640 without NaBicarbonate/5'/oFBS) were overlayed onto these fixed immunoprecipitates and incubated on an orbital shaker at 80 rpm for 30 min. at 4° C. The number of adherent lymphocytes was quantified by light microscopy using an ocular grid under 100× magnification (a minimum of 5 fields/slide, 2 slides/experiment, and 3 separate experiments). Data were presented as the mean number of bound lymphocytes±standard deviation. KG1a CD34 and L-selectin control immunoprecipitates were also tested in this manner. To verify the dependence for sialic acid, glutaraldehyde-fixed spots were treated with *Vibrio cholerae* neuraminidase (0.1U/ml RPMI-1640 without NaBicarbonate/2% FBS for 1 hr at 37° C.). In addition, to verify that cellular adhesion was dependent on L-selectin, all assays included negative controls, in which lymphocytes were treated with PMA (50 ng/ml for 30 min at 37° C.) or functional blocking antibodies (anti-rat-L-selectin moAb HRL-1 or anti-human L-selectin moAb LAM1-3;10 µg/ml), or lymphocyte suspensions contained 5 mM EDTA.
(§2) [2]The average number of bound lymphocytes from 5 fields of view at 100x mag. from duplicate slides and a minimum of three experiments. […]

[11] = molecular target: T1, human E-selectin on CHO-E cells (human, UniProt P16581 22-610); assay: blot rolling assay, CHO-E cells over blotted HL60 membrane protein
T1 construct: whole, on cells; also called CD62E
T1 sequence (looked up): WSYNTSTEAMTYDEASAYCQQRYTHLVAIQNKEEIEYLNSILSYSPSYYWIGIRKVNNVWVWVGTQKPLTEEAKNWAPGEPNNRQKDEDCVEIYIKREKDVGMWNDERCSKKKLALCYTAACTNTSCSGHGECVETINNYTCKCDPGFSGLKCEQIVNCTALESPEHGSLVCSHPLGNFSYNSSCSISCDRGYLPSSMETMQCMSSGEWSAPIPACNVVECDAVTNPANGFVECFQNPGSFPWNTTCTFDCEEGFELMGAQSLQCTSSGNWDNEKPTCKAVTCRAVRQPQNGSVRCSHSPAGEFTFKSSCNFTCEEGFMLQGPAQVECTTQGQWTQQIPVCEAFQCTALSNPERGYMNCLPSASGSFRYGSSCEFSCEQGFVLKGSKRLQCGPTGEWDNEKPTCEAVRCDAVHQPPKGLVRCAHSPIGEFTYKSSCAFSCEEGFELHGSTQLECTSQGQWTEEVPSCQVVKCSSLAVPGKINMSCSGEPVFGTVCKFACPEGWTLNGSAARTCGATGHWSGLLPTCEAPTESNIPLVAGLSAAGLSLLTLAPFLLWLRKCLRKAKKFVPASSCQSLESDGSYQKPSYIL
Method: The blot rolling assay was performed as previously described (Dimitroff et al., 2000). Briefly, CHO-E, CHO-P or CHO-Mock transfectants were isolated as described above, washed twice in HBSS and suspended at 10^7/ml in HBSS/10 mM HEPES/2mMCaCl_2 (H/H/Ca++)/10% glycerol. […] The blots were then placed in the parallel-plate flow chamber, and CHO transfectants (2×10^6/ml) were perfused into the chamber. After allowing the cells to come in contact with the blotting membrane, the flow rate was adjusted to exert a shear stress of 3.8 dynes/cm^2. The viscosity of 10% glycerol adhesion assay medium was considered in the calculation of shear stress values. The number of cells rolling on and between each immunostained banding region was quantified under 100× magnification within each field of view on the video monitor using molecular weight markers (Kaleidoscope Molecular Weight Markers, Bio-Rad Lab.; See Blue® from Novex, Inc.) as guides to help align and visualize the apparent molecular weights of the proteins of interest. A minimum of 3 experiments was performed and results were expressed as the mean±SD of cell rolling/field at 100× magnification. […]

[12] = molecular target: T2, CD34 immunoprecipitated from KG1a cells (human, UniProt P28906 32-385); assay: Stamper-Woodruff assay, 80 rpm, rat thoracic duct lymphocytes
T2 construct: mature; also called KG1a CD34; CD34 (Molecular Control)
T2 sequence (looked up): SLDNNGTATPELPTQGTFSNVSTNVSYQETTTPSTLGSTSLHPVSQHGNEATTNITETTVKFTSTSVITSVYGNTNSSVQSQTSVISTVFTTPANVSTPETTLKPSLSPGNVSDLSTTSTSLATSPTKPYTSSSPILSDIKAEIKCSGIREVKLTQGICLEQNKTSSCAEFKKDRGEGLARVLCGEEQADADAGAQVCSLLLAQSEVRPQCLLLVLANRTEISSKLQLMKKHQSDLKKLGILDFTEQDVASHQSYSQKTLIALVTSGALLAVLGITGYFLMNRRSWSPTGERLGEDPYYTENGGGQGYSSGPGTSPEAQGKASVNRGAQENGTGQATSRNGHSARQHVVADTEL
Method: as §1, §2

Q: For “anti-human L-selectin monoclonal antibody LAM1-3”, which bound cells/field left after the antibody (bound cells/field) [1] is on record?
A: < 10

Q: Which % Control Mean Lymphocyte Binding (% of untreated control) [2] does the source give for anti-PSGL-1 monoclonal antibody PL-1 here?
A: 62.5

Q: And the % Control Mean Lymphocyte Binding (% of untreated control) [3]?
A: 105

Q: With “hematopoietic cell E-selectin/L-selectin ligand (HCELL), the CD44 glycoform of KG1a cells (from UniProt P16070 21-742)” as the molecule, how does the L-selectin-mediated neutrophil rolling on KG1a cells against HL60 cells, parallel-plate flow chamber [4] read?
A: 4 fold

Q: And the L-selectin-mediated lymphocyte adherence to KG1a cells against HL60 cells at 80 rpm, Stamper-Woodruff assay [5]?
A: 10 fold

Q: What about the frequency of rolling lymphocytes on KG1a cells against HL60 cells, parallel-plate flow chamber [5] of the same molecule?
A: < 5 fold

Q: And the % Control Mean Lymphocyte Binding; KG1a Cells + mocarhagin (% of untreated control) [6]?
A: 110

Q: And the % Control Mean Lymphocyte Binding; KG1a Cells +Neur. + DMSO (% of untreated control) [6]?
A: 103

Q: And the % Control Mean Lymphocyte Binding; KG1a Cells +Neur. + Tunicamycin (15 µg/ml) (% of untreated control) [6]?
A: 34.3

Q: And the % Control Mean Lymphocyte Binding; KG1a Cells +OSGE (60 µg/ml) (% of untreated control) [6]?
A: 104

Q: What about the % Control Mean Lymphocyte Binding; KG1a Cells +neuraminidase (Neur.) (0.1 U/ml) (% of untreated control) [6] of the same molecule?
A: 0.3

Q: What about the bound cells/field (bound cells/field) [7] of the same molecule?
A: 362

Q: What about the fold lymphocyte binding compared with PSGL-1 [8] of the same molecule?
A: < 10 fold

Q: And the fold L-selectin ligand activity compared to other bands [9]?
A: < 6 fold

B1: L-selectin immunoprecipitated from KG1a cells (receptor, human, UniProt P14151 39-372, looked up)
chain: WTYHYSEKPMNWQRARRFCRDNYTDLVAIQNKAEIEYLEKTLPFSRSYYWIGIRKIGGIWTWVGTNKSLTEEAENWGDGEPNNKKNKEDCVEIYIKRNKDAGKWNDDACHKLKAALCYTASCQPWSCSGHGECVEIINNYTCNCDVGYYGPQCQFVIQCEPLEAPELGTMDCTHPLGNFSFSSQCAFSCSEGTNLTGIEETTCGPFGNWSSPEPTCQVIQCEPLSAPDLGIMNCSHPLASFSFTSACTFICSEGTELIGKKKTICESSGIWSNPSPICQKLDKSFSMIKEGDYNPLFIPVAVMVTAFSGLAFIIWLARRLKKGKKSKRSMNDPY
notes: mature; also called L-selectin (Molecular Control)
Q: Does B1 bind [10]?
A: no binding

B2: PSGL-1 from HL60 cells (ligand, human, UniProt Q14242 42-412, looked up)
chain: QATEYEYLDYDFLPETEPPEMLRNSTDTTPLTGPGTPESTTVEPAARRSTGLDAGGAVTELTTELANMGNLSTDSAAMEIQTTQPAATEAQTTQPVPTEAQTTPLAATEAQTTRLTATEAQTTPLAATEAQTTPPAATEAQTTQPTGLEAQTTAPAAMEAQTTAPAAMEAQTTPPAAMEAQTTQTTAMEAQTTAPEATEAQTTQPTATEAQTTPLAAMEALSTEPSATEALSMEPTTKRGLFIPFSVSSVTHKGIPMAASNLSVNYPVGAPDHISVKQCLLAILILALVATIFFVCTVVLAVRLSRKGHMYPVRNYSPTEMVCISSLLPDGGEGPSATANGGLSKAKSPGLTPEPREDREGDDLTLHSFLP
modifications: HECA-452-reactive glycans
notes: mature; also called HL60 PSGL-1; PSGL-1/CLA
Q: Does B2 bind [11]?
A: binds

Q: Does B3 bind [12]?
A: no binding
